Publication PMC7516004, “RICE CENTRORADIALIS 1, a TFL1-like Gene, Responses to Drought Stress and Regulates Rice Flowering Transition”

T1: OSBZ8 (Oryza sativa, UniProt Q40645 1-360)
T1 sequence: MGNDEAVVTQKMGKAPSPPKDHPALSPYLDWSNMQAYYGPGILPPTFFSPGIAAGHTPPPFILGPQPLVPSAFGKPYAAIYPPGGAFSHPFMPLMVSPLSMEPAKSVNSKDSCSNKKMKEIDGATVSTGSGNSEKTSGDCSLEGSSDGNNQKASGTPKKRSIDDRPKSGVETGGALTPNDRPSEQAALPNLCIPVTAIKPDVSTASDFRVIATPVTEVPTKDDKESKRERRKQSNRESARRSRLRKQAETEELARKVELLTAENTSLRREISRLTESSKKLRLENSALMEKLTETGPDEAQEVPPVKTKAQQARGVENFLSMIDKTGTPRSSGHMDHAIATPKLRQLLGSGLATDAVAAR

T2: TRAB1 (Oryza sativa, UniProt Q6ZDF3 1-374)
T2 sequence: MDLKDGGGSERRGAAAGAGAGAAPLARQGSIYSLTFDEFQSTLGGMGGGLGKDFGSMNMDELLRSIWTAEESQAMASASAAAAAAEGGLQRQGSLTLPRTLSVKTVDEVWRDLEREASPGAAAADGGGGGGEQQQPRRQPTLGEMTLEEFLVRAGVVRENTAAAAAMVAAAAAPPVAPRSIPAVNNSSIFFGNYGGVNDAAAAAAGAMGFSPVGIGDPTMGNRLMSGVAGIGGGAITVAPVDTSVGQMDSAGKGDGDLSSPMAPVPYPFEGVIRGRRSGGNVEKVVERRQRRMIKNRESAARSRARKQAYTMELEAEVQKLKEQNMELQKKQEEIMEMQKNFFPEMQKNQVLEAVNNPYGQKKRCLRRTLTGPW


Columns and labels:
OSBZ8 = molecular target: T1, OSBZ8; assay: EMSA; Chemiluminescent Nucleic Acid Detection Module Kit (Thermo) per manufacturer; binding buffer, salt, pH and temperature not stated; details: protein: recombinant; tags: His (pCold vector); chain copies: 2; label: biotin
TRAB1 = molecular target: T2, TRAB1; assay: as above; details: protein: recombinant; tags: His (pCold vector); chain copies: 2; label: biotin

| Binder | binding result (OSBZ8) | binding result (TRAB1) |
| --- | --- | --- |
| Probe 5 (dsDNA) DNA 1: ATAAGACAAGTGGTCAAACGTTGCAAACAAAAACTCAAAA DNA 2: TTTTGAGTTTTTGTTTGCAACGTTTGACCACTTGTCTTAT | no binding | no binding |
| Mutant-9 (dsDNA) DNA 1: TGTGGTTTTGGCTGGGCGCCTGGCGAATTTGACTC DNA 2: GAGTCAAATTCGCCAGGCGCCCAGCCAAAACCACA | no binding |  |
| Probe 6 (dsDNA) DNA 1: TGTGGGACGGAGGGAGTACGTCACAAAAATTATGTTACAA DNA 2: TTGTAACATAATTTTTGTGACGTACTCCCTCCGTCCCACA | no binding | no binding |
| Probe 4 (dsDNA) DNA 1: TTGAGTTTTTGCTTGCAACGTTTGACCACTCGTCTTATTC DNA 2: GAATAAGACGAGTGGTCAAACGTTGCAAGCAAAAACTCAA | no binding | no binding |
| Probe 12 (dsDNA) DNA 1: AGTCAAATTAGCCACGTAGGCGACACGTCAGCTAAAACCGC DNA 2: GCGGTTTTAGCTGACGTGTCGCCTACGTGGCTAATTTGACT |  | no binding |
| Probe 2 (dsDNA) DNA 1: AGCTTTGAAACATTTTCCACGTTTCATGAACCAACACTCAAT DNA 2: ATTGAGTGTTGGTTCATGAAACGTGGAAAATGTTTCAAAGCT | no binding | no binding |
| Mutant-14 (dsDNA) DNA 1: AGGAAAAATGGTGGGACCCGGGCCCCACATGTCATCCT DNA 2: AGGATGACATGTGGGGCCCGGGTCCCACCATTTTTCCT | no binding |  |
| Mutant-11 (dsDNA) DNA 1: AATAAAAATGGTGGGACCCGGGCCCCACAAGTCATTCT DNA 2: AGAATGACTTGTGGGGCCCGGGTCCCACCATTTTTATT | no binding |  |
| Probe 1 (dsDNA) DNA 1: ATCGTGTTCTTCGCCGGCACGTGGTAATGGGCAGAATCTCC DNA 2: GGAGATTCTGCCCATTACCACGTGCCGGCGAAGAACACGAT | no binding | no binding |
| Mutant-13 (dsDNA) DNA 1: CTTCATCTGGACACTGGGCGCTTGGCAAGTTGA DNA 2: TCAACTTGCCAAGCGCCCAGTGTCCAGATGAAG | no binding |  |
| Probe 11 (dsDNA) DNA 1: AATAAAAATGGTGGGACCCACGTGGGCCCCACAAGTCATTCT DNA 2: AGAATGACTTGTGGGGCCCACGTGGGTCCCACCATTTTTATT |  | no binding |
| Probe 14 (dsDNA) DNA 1: AGGAAAAATGGTGGGACCCACGTGGGCCCCACATGTCATCCT DNA 2: AGGATGACATGTGGGGCCCACGTGGGTCCCACCATTTTTCCT |  | no binding |
| Probe 7 (dsDNA) DNA 1: TCCTACATACCCTCAGCACGTAAAGCGAGAAGTTTTATCT DNA 2: AGATAAAACTTCTCGCTTTACGTGCTGAGGGTATGTAGGA | no binding | no binding |
| Probe 3 (dsDNA) DNA 1: GTCATTTTGAGGGGCTGACGTTTGGTGGACAGCGCAGTTT DNA 2: AAACTGCGCTGTCCACCAAACGTCAGCCCCTCAAAATGAC | no binding | no binding |
| Probe 13 (dsDNA) DNA 1: CTTCATCTGACGTGACACTGACGTGGCGCTTACGTGGCAAGTTGA DNA 2: TCAACTTGCCACGTAAGCGCCACGTCAGTGTCACGTCAGATGAAG | binds | no binding |
| Probe 8 (dsDNA) DNA 1: GATAAGATTGCTCAGCAACGTAATCTTCATAGATCCACTT DNA 2: AAGTGGATCTATGAAGATTACGTTGCTGAGCAATCTTATC | no binding | no binding |
| Probe 10 (dsDNA) DNA 1: TCTTCATCTGACGTGGCATTGATGTGGTGCTTACGTGGCACTTCGA DNA 2: TCGAAGTGCCACGTAAGCACCACATCAATGCCACGTCAGATGAAGA |  | no binding |
| Mutant-12 (dsDNA) DNA 1: AGTCAAATTAGCCAGGCGACCAGCTAAAACCGC DNA 2: GCGGTTTTAGCTGGTCGCCTGGCTAATTTGACT | no binding |  |
| Mutant-10 (dsDNA) DNA 1: TCTTCATCTGGGCATTGATGTGGTGCTTGGCACTTCGA DNA 2: TCGAAGTGCCAAGCACCACATCAATGCCCAGATGAAGA | no binding |  |
| Probe 9 (dsDNA) DNA 1: TGTGGTTTTGGCTGACGTGGCGCCTACGTGGCGAATTTGACTC DNA 2: GAGTCAAATTCGCCACGTAGGCGCCACGTCAGCCAAAACCACA |  | no binding |
